# Results published in paper PMC4664405, “Mapping Soluble Guanylyl Cyclase and Protein Disulfide Isomerase Regions of Interaction” (PLoS ONE, 2015).
# T1: soluble guanylyl cyclase (sGC) α subunit, of the purified reduced sGC (human, UniProt Q02108 1-690)
# T1 construct: soluble guanylyl cyclase α subunit, human GCYA3; called full-length reduced sGC in the discussion; cross-linked lysines K5, K606, K672, K673, K685; Bought as the α/β heterodimer and reduced before incubation with PDI; also called GCYA3; source: bought: Axxora
# T1 sequence (looked up): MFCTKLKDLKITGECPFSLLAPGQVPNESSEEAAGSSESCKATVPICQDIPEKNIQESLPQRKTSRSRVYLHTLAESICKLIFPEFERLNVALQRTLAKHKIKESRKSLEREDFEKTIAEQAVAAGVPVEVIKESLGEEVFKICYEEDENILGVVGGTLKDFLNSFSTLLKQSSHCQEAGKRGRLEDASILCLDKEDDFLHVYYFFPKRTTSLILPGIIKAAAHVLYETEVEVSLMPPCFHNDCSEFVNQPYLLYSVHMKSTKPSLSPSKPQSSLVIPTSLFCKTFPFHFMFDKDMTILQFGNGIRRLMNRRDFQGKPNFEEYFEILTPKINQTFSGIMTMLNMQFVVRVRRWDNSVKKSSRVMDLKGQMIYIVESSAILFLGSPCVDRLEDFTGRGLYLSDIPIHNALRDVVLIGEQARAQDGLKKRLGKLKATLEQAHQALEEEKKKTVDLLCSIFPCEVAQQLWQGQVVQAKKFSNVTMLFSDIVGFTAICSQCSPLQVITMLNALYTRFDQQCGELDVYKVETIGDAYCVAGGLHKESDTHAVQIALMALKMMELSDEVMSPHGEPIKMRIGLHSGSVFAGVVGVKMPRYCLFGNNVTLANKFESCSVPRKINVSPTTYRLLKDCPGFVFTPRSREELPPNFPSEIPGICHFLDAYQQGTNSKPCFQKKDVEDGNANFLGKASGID
# B1: soluble guanylyl cyclase (sGC) β subunit, of the purified reduced sGC (enzyme, human, UniProt Q02153 1-619, looked up)
# chain: MYGFVNHALELLVIRNYGPEVWEDIKKEAQLDEEGQFLVRIIYDDSKTYDLVAAASKVLNLNAGEILQMFGKMFFVFCQESGYDTILRVLGSNVREFLQNLDALHDHLATIYPGMRAPSFRCTDAEKGKGLILHYYSEREGLQDIVIGIIKTVAQQIHGTEIDMKVIQQRNEECDHTQFLIEEKESKEEDFYEDLDRFEENGTQESRISPYTFCKAFPFHIIFDRDLVVTQCGNAIYRVLPQLQPGNCSLLSVFSLVRPHIDISFHGILSHINTVFVLRSKEGLLDVEKLECEDELTGTEISCLRLKGQMIYLPEADSILFLCSPSVMNLDDLTRRGLYLSDIPLHDATRDLVLLGEQFREEYKLTQELEILTDRLQLTLRALEDEKKKTDTLLYSVLPPSVANELRHKRPVPAKRYDNVTILFSGIVGFNAFCSKHASGEGAMKIVNLLNDLYTRFDTLTDSRKNPFVYKVETVGDKYMTVSGLPEPCIHHARSICHLALDMMEIAGQVQVDGESVQITIGIHTGEVVTGVIGQRMPRYCLFGNTVNLTSRTETTGEKGKINVSEYTYRCLMSPENSDPQFHLEHRGPVSMKGKKEPMQVWFLSRKNTGTEETKQDDD
# notes: soluble guanylyl cyclase β subunit, human GCYB1; called full-length reduced sGC in the discussion; cross-linked lysines K127, K187, K559, K615; Bought as the α/β heterodimer and reduced before incubation with PDI; also called GCYB1; source: bought: Axxora
# B2: protein disulfide isomerase (PDI), oxidized, purified (enzyme)
# chain: not shown
# modifications: oxidized: each active site Cys-x-x-Cys forms a disulfide bond
# notes: protein disulfide isomerase, human P4HB; called full-length oxidized PDI in the discussion; cross-linked lysines K370 and K409; also called oxidized PDI; oxPDI; source: PDI in pTRC-HisA, purified as described previously [11]
# Experiments:
# [1] = target: T1, soluble guanylyl cyclase (sGC) α …; assay: cross-linking; reduced sGC and oxidized PDI incubated, 50 molar excess of BS3 for 30 minutes at room temperature (22°C) in the dark, alkylated with 40 mM iodoacetamide, non-reducing 7.5% TGX gel, bands digested with trypsin, RPLC-MS/MS, MassMatrix search; conditions: both partners purified
# [2] = target: B1; assay: as above; conditions: both partners purified
binding result [1],binding result [2],Binder
binds,,B1
binds,binds,B2
